US20110091994A1, “Methods for Screening Compounds for Treating and/or Preventing an Hepatitis C Virus Infection” (priority 2008, published 2011)
Read-outs that look alike come from different tables or passages of the source.

How the values were obtained:
[1] = biological target: T1, HCV ORFs (Gal4-DB fusions) (Hepatitis C virus genotype 1b, UniProt Q9WMX2); assay type: binding, HCV genotype 1b, isolate con1; settings: human protein as prey
T1 construct: expressed in transfected cells; host or cells: Saccharomyces cerevisiae MAV203 (IMAP1) / AH109 (IMAP2)

[2] = test system: HCV ORFs (Gal4-DB fusions); assay type: binding, HCV genotype 1b, isolate con1; settings: human protein listed by gene symbol; the value names the HCV protein it interacts with
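Note: yeast two-hybrid screens using HCV genotype 1b proteins fused to Gal4-DB as baits against prey cDNA libraries from human spleen and foetal brain, IMAP1 via transformation and IMAP2 via mating.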

B1: LIMS2 (protein, UniProt Q7Z4I7 1-341, looked up)
LIM and senescent cell …: MTGSNMSDALANAVCQRCQARFSPAERIVNSNGELYHEHCFVCAQCFRPFPEGLFYEFEGRKYCEHDFQMLFAPCCGSCGEFIIGRVIKAMNNNWHPGCFRCELCDVELADLGFVKNAGRHLCRPCHNREKAKGLGKYICQRCHLVIDEQPLMFRSDAYHPDHFNCTHCGKELTAEARELKGELYCLPCHDKMGVPICGACRRPIEGRVVNALGKQWHVEHFVCAKCEKPFLGHRHYEKKGLAYCETHYNQLFGDVCYNCSHVIEGDVVSALNKAWCVSCFSCSTCNSKLTLKNKFVEFDMKPVCKRCYEKFPLELKKRLKKLSELTSRKAQPKATDLNSA
Q: For B1, which “IMAP Y2H IMAP2 (number of IST)” value ([1]; HCV protein NS5A as bait) is on record?
A: 1

Q: And the “Interaction with viral protein” value [2]?
A: NS5A

B2: PMVK (protein, UniProt Q15126 1-192, looked up)
Phosphomevalonate kinase: MAPLGGAPRLVLLFSGKRKSGKDFVTEALQSRLGADVCAVLRLSGPLKEQYAQEHGLNFQRLLDTSTYKEAFRKDMIRWGEEKRQADPGFFCRKIVEGISQPIWLVSDTRRVSDIQWFREAYGAVTQTVRVVALEQSRQQRGWVFTPGVDDAESECGLDNFGDFDWVIENHGVEQRLEEQLENLIEFIRSRL
Q: B2 was tested. Which “IMAP Y2H IMAP2 (number of IST)” value ([1]; HCV protein NS5A as bait) did it give?
A: 1

Q: And the “Interaction with viral protein” value [2]?
A: NS5A

B3: PARVG (protein, UniProt Q9HBI0 1-331, looked up)
Gamma-parvin: MEPEFLYDLLQLPKGVEPPAEEELSKGGKKKYLPPTSRKDPKFEELQKVLMEWINATLLPEHIVVRSLEEDMFDGLILHHLFQRLAALKLEAEDIALTATSQKHKLTVVLEAVNRSLQLEEWQAKWSVESIFNKDLLSTLHLLVALAKRFQPDLSLPTNVQVEVITIESTKSGLKSEKLVEQLTEYSTDKDEPPKDVFDELFKLAPEKVNAVKEAIVNFVNQKLDRLGLSVQNLDTQFADGVILLLLIGQLEGFFLHLKEFYLTPNSPAEMLHNVTLALELLKDEGLLSCPVSPEDIVNKDAKSTLRVLYGLFCKHTQKAHRDRTPHGAPN
Q: With B3 as the molecule, how does the “IMAP Y2H IMAP2 (number of IST)” value ([1]; HCV protein NS5A as bait) read?
A: 1

Q: What about the “Interaction with viral protein” value [2] of the same molecule?
A: NS5A

B4: TP53BP2 (protein, UniProt Q13625 1-1128, looked up)
Apoptosis-stimulating of p53 …: MMPMFLTVYLSNNEQHFTEVPVTPETICRDVVDLCKEPGESDCHLAEVWCGSERPVADNERMFDVLQRFGSQRNEVRFFLRHERPPGRDIVSGPRSQDPSLKRNGVKVPGEYRRKENGVNSPRMDLTLAELQEMASRQQQQIEAQQQLLATKEQRLKFLKQQDQRQQQQVAEQEKLKRLKEIAENQEAKLKKVRALKGHVEQKRLSNGKLVEEIEQMNNLFQQKQRELVLAVSKVEELTRQLEMLKNGRIDSHHDNQSAVAELDRLYKELQLRNKLNQEQNAKLQQQRECLNKRNSEVAVMDKRVNELRDRLWKKKAALQQKENLPVSSDGNLPQQAASAPSRVAAVGPYIQSSTMPRMPSRPELLVKPALPDGSLVIQASEGPMKIQTLPNMRSGAASQTKGSKIHPVGPDWSPSNADLFPSQGSASVPQSTGNALDQVDDGEVPLREKEKKVRPFSMFDAVDQSNAPPSFGTLRKNQSSEDILRDAQVANKNVAKVPPPVPTKPKQINLPYFGQTNQPPSDIKPDGSSQQLSTVVPSMGTKPKPAGQQPRVLLSPSIPSVGQDQTLSPGSKQESPPAAAVRPFTPQPSKDTLLPPFRKPQTVAASSIYSMYTQQQAPGKNFQQAVQSALTKTHTRGPHFSSVYGKPVIAAAQNQQQHPENIYSNSQGKPGSPEPETEPVSSVQENHENERIPRPLSPTKLLPFLSNPYRNQSDADLEALRKKLSNAPRPLKKRSSITEPEGPNGPNIQKLLYQRTTIAAMETISVPSYPSKSASVTASSESPVEIQNPYLHVEPEKEVVSLVPESLSPEDVGNASTENSDMPAPSPGLDYEPEGVPDNSPNLQNNPEEPNPEAPHVLDVYLEEYPPYPPPPYPSGEPEGPGEDSVSMRPPEITGQVSLPPGKRTNLRKTGSERIAHGMRVKFNPLALLLDSSLEGEFDLVQRIIYEVDDPSLPNDEGITALHNAVCAGHTEIVKFLVQFGVNVNAADSDGWTPLHCAASCNNVQVCKFLVESGAAVFAMTYSDMQTAADKCEEMEEGYTQCSQFLYGVQEKMGIMNKGVIYALWDYEPQNDDELPMKEGDCMTIIHREDEDEIEWWWARLNDKEGYVPRNLLGLYPRIKPRQRSLA
Q: With B4 as the molecule, how does the “IMAP Y2H IMAP2 (number of IST)” value ([1]; HCV protein NS5A as bait) read?
A: 2

Q: What about the “Interaction with viral protein” value [2] of the same molecule?
A: NS5A

B5: RRBP1 (protein, UniProt Q9P2E9 1-1410, looked up)
Ribosome-binding protein 1: MDIYDTQTLGVVVFGGFMVVSAIGIFLVSTFSMKETSYEEALANQRKEMAKTHHQKVEKKKKEKTVEKKGKTKKKEEKPNGKIPDHDPAPNVTVLLREPVRAPAVAVAPTPVQPPIIVAPVATVPAMPQEKLASSPKDKKKKEKKVAKVEPAVSSVVNSIQVLTSKAAILETAPKEVPMVVVPPVGAKGNTPATGTTQGKKAEGTQNQSKKAEGAPNQGRKAEGTPNQGKKTEGTPNQGKKAEGTPNQGKKAEGTPNQGKKAEGAQNQGKKVDTTPNQGKKVEGAPTQGRKAEGAQNQAKKVEGAQNQGKKAEGAQNQGKKGEGAQNQGKKAEGAQNQGKKAEGAQNQGKKAEGAQNQGKKAEGAQNQGKKAEGAQNQGKKAEGAQNQGKKVEGAQNQGKKAEGAQNQGKKAEGAQNQGKKAEGAQNQGKKAEGAQNQGKKAEGAQNQGKKAEGAQNQGKKAEGAQNQGKKVEGAQNQGKKAEGAQNQGKKAEGAQNQGKKAEGAQNQGQKGEGAQNQGKKTEGAQGKKAERSPNQGKKGEGAPIQGKKADSVANQGTKVEGITNQGKKAEGSPSEGKKAEGSPNQGKKADAAANQGKKTESASVQGRNTDVAQSPEAPKQEAPAKKKSGSKKKGEPGPPDADGPLYLPYKTLVSTVGSMVFNEGEAQRLIEILSEKAGIIQDTWHKATQKGDPVAILKRQLEEKEKLLATEQEDAAVAKSKLRELNKEMAAEKAKAAAGEAKVKKQLVAREQEITAVQARMQASYREHVKEVQQLQGKIRTLQEQLENGPNTQLARLQQENSILRDALNQATSQVESKQNAELAKLRQELSKVSKELVEKSEAVRQDEQQRKALEAKAAAFEKQVLQLQASHRESEEALQKRLDEVSRELCHTQSSHASLRADAEKAQEQQQQMAELHSKLQSSEAEVRSKCEELSGLHGQLQEARAENSQLTERIRSIEALLEAGQARDAQDVQASQAEADQQQTRLKELESQVSGLEKEAIELREAVEQQKVKNNDLREKNWKAMEALATAEQACKEKLLSLTQAKEESEKQLCLIEAQTMEALLALLPELSVLAQQNYTEWLQDLKEKGPTLLKHPPAPAEPSSDLASKLREAEETQSTLQAECDQYRSILAETEGMLRDLQKSVEEEEQVWRAKVGAAEEELQKSRVTVKHLEEIVEKLKGELESSDQVREHTSHLEAELEKHMAAASAECQNYAKEVAGLRQLLLESQSQLDAAKSEAQKQSDELALVRQQLSEMKSHVEDGDIAGAPASSPEAPPAEQDPVQLKTQLEWTEAILEDEQTQRQKLTAEFEEAQTSACRLQEELEKLRTAGPLESSETEEASQLKERLEKEKKLTSDLGRAATRLQELLKTTQEQLAREKDTVKKLQEQLEKAEDGSSSKEGTSV
Q: With B5 as the molecule, how does the “IMAP Y2H IMAP2 (number of IST)” value ([1]; HCV protein NS5A as bait) read?
A: 2

Q: What about the “Interaction with viral protein” value [2] of the same molecule?
A: NS5A

B6: NFE2 (protein, UniProt Q16621 1-373, looked up)
Transcription factor NF-E2 45 …: MSPCPPQQSRNRVIQLSTSELGEMELTWQEIMSITELQGLNAPSEPSFEPQAPAPYLGPPPPTTYCPCSIHPDSGFPLPPPPYELPASTSHVPDPPYSYGNMAIPVSKPLSLSGLLSEPLQDPLALLDIGLPAGPPKPQEDPESDSGLSLNYSDAESLELEGTEAGRRRSEYVEMYPVEYPYSLMPNSLAHSNYTLPAAETPLALEPSSGPVRAKPTARGEAGSRDERRALAMKIPFPTDKIVNLPVDDFNELLARYPLTESQLALVRDIRRRGKNKVAAQNCRKRKLETIVQLERELERLTNERERLLRARGEADRTLEVMRQQLTELYRDIFQHLRDESGNSYSPEEYALQQAADGTIFLVPRGTKMEATD
Q: How did the “IMAP Y2H IMAP2 (number of IST)” value ([1]; HCV protein NS5A as bait) turn out when B6 was run?
A: 1

Q: And the “Interaction with viral protein” value [2]?
A: NS5A

B7: SORBS3 (protein, UniProt O60504 1-671, looked up)
Vinexin: MQGPPRSLRAGLSLDDFIPGHLQSHIGSSSRGTRVPVIRNGGSNTLNFQFHDPAPRTVCNGGYTPRRDASQHPDPAWYQTWPGPGSKPSASTKIPASQHTQNWSATWTKDSKRRDKRWVKYEGIGPVDESGMPIAPRSSVDRPRDWYRRMFQQIHRKMPDLQLDWTFEEPPRDPRHLGAQQRPAHRPGPATSSSGRSWDHSEELPRSTFNYRPGAFSTVLQPSNQVLRRREKVDNVWTEESWNQFLQELETGQRPKKPLVDDPGEKPSQPIEVLLERELAELSAELDKDLRAIETRLPSPKSSPAPRRAPEQRPPAGPASAWSSSYPHAPYLGSARSLSPHKMADGGSPFLGRRDFVYPSSTRDPSASNGGGSPARREEKKRKAARLKFDFQAQSPKELTLQKGDIVYIHKEVDKNWLEGEHHGRLGIFPANYVEVLPADEIPKPIKPPTYQVLEYGEAVAQYTFKGDLEVELSFRKGEHICLIRKVNENWYEGRITGTGRQGIFPASYVQVSREPRLRLCDDGPQLPTSPRLTAAARSARHPSSPSALRSPADPIDLGGQTSPRRTGFSFPTQEPRPQTQNLGTPGPALSHSRGPSHPLDLGTSSPNTSQIHWTPYRAMYQYRPQNEDELELREGDRVDVMQQCDDGWFVGVSRRTQKFGTFPGNYVAPV
Q: Which results are given for B7?
A: IMAP Y2H IMAP2 (number of IST) ([1]; HCV protein NS5A as bait): 1; Interaction with viral protein [2]: NS5A

B8: OS9 (protein, UniProt Q13438 26-667, looked up)
Protein OS-9: GGVGSLNLEELSEMRYGIEILPLPVMGGQSQSSDVVIVSSKYKQRYECRLPAGAIHFQREREEETPAYQGPGIPELLSPMRDAPCLLKTKDWWTYEFCYGRHIQQYHMEDSEIKGEVLYLGYYQSAFDWDDETAKASKQHRLKRYHSQTYGNGSKCDLNGRPREAEVRFLCDEGAGISGDYIDRVDEPLSCSYVLTIRTPRLCPHPLLRPPPSAAPQAILCHPSLQPEEYMAYVQRQADSKQYGDKIIEELQDLGPQVWSETKSGVAPQKMAGASPTKDDSKDSDFWKMLNEPEDQAPGGEEVPAEEQDPSPEAADSASGAPNDFQNNVQVKVIRSPADLIRFIEELKGGTKKGKPNIGQEQPVDDAAEVPQREPEKERGDPERQREMEEEEDEDEDEDEDEDERQLLGEFEKELEGILLPSDRDRLRSEVKAGMERELENIIQETEKELDPDGLKKESERDRAMLALTSTLNKLIKRLEEKQSPELVKKHKKKRVVPKKPPPSPQPTEEDPEHRVRVRVTKLRLGGPNQDLTVLEMKRENPQLKQIEGLVKELLEREGLTAAGKIEIKIVRPWAEGTEEGARWLTDEDTRNLKEIFFNILVPGAEEAQKERQRQKELESNYRRVWGSPGGEGTGDLDEFDF
Q: Which “IMAP Y2H IMAP2 (number of IST)” value ([1]; HCV protein NS5B as bait) does the source give for B8 here?
A: 3

Q: And the “Interaction with viral protein” value [2]?
A: NS5A

B9: BCL2A1 (protein, UniProt Q16548 1-175, looked up)
Bcl-2-related protein A1: MTDCEFGYIYRLAQDYLQCVLQIPQPGSGPSKTSRVLQNVAFSVQKEVEKNLKSCLDNVNVVSVDTARTLFNQVMEKEFEDGIINWGRIVTIFAFEGILIKKLLRQQIAPDVDTYKEISYFVAEFIMNNTGEWIRQNGGWENGFVKKFEPKSGWMTFLEVTGKICEMLSLLKQYC
Q: Which “IMAP Y2H IMAP2 (number of IST)” value ([1]; HCV protein NS3 as bait) does the source give for B9 here?
A: 1

Q: What about the “Interaction with viral protein” value [2] of the same molecule?
A: NS3

B10: IGLL1 (protein, UniProt P15814 38-213, looked up)
Immunoglobulin lambda-like …: LLRPTAASQSRALGPGAPGGSSRSSLRSRWGRFLLQRGSWTGPRCWPRGFQSKHNSVTHVFGSGTQLTVLSQPKATPSVTLFPPSSEELQANKATLVCLMNDFYPGILTVTWKADGTPITQGVEMTTPSKQSNNKYAASSYLSLTPEQWRSRRSYSCQVMHEGSTVEKTVAPAECS
Q: For B10, which “IMAP Y2H IMAP2 (number of IST)” value ([1]; HCV protein NS5A as bait) is on record?
A: 1

Q: What about the “Interaction with viral protein” value [2] of the same molecule?
A: NS5A
